Numbering of substitutions follows the chain as printed. Numbers in names are those of the source.
B1: Δ5-RCC1 (domain or fragment, human, UniProt P18754 6-421, looked up)
chain: IAKRRSPPADAIPKSKKVKVSHRSHSTEPGLVLTLGQGDVGQLGLGENVMERKKPALVSIPEDVVQAEAGGMHTVCLSKSGQVYSFGCNDEGALGRDTSVEGSEMVPGKVELQEKVVQVSAGDSHTAALTDDGRVFLWGSFRDNNGVIGLLEPMKKSMVPVQVQLDVPVVKVASGNDHLVMLTADGDLYTLGCGEQGQLGRVPELFANRGGRQGLERLLVPKCVMLKSRGSRGHVRFQDAFCGAYFTFAISHEGHVYGFGLSNYHQLGTPGTESCFIPQNLTSFKNSTKSWVGFSGGQHHTVCMDSEGKAYSLGRAEYGRLGLGEGAEEKSIPTLISRLPAVSSVACGASVGYAVTKDGRVFAWGMGTNYQLGTGQDEDAWSPVEMMGKQLENRVVLSVSSGGQHTVLLVKDKEQS
notes: human RCC1 (RCC1α) with the first five residues deleted; source: E. coli BL21(DE3) AI or BL21(DE3), purified
B2: yRCC1 (yeast RCC1, cleaved from GST, in the purified Kap60:yRCC1 complex) (natural protein, Saccharomyces cerevisiae (strain S288C))
chain: MVKRTVATNGDASGAHRAKKMSKTHASHIINAQEDYKHMYLSVQPLDIFCWGTGSMCELGLGPLAKNKEVKRPRLNPFLPRDEAKIISFAVGGMHTLALDEESNVWSWGCNDVGALGRDTSNAKEQLKDMDADDSSDDEDGDLNELESTPAKIPRESFPPLAEGHKVVQLAATDNMSCALFSNGEVYAWGTFRCNEGILGFYQDKIKIQKTPWKVPTFSKYNIVQLAPGKDHILFLDEEGMVFAWGNGQQNQLGRKVMERFRLKTLDPRPFGLRHVKYIASGENHCFALTKDNKLVSWGLNQFGQCGVSEDVEDGALVTKPKRLALPDNVVIRSIAAGEHHSLILSQDGDLYSCGRLDMFEVGIPKDNLPEYTYKDVHGKARAVPLPTKLNNVPKFKSVAAGSHHSVAVAQNGIAYSWGFGETYAVGLGPFEDDTEVPTRIKNTATQDHNIILVGCGGQFSVSGGVKLSDEDAEKRADEMDD
notes: Saccharomyces cerevisiae RCC1 homolog Prp20p, amplified from a genomic library of strain S288C; also called Prp20p; source: E. coli BL21-AI, co-expressed with ΔIBB-Kap60, cleaved off glutathione beads with PreScission Protease, SEC; not shown: GST, N-terminal, cleaved
B3: RCC1 (human, wild type, free protein) (natural protein, UniProt P18754 1-421, looked up)
chain: MSPKRIAKRRSPPADAIPKSKKVKVSHRSHSTEPGLVLTLGQGDVGQLGLGENVMERKKPALVSIPEDVVQAEAGGMHTVCLSKSGQVYSFGCNDEGALGRDTSVEGSEMVPGKVELQEKVVQVSAGDSHTAALTDDGRVFLWGSFRDNNGVIGLLEPMKKSMVPVQVQLDVPVVKVASGNDHLVMLTADGDLYTLGCGEQGQLGRVPELFANRGGRQGLERLLVPKCVMLKSRGSRGHVRFQDAFCGAYFTFAISHEGHVYGFGLSNYHQLGTPGTESCFIPQNLTSFKNSTKSWVGFSGGQHHTVCMDSEGKAYSLGRAEYGRLGLGEGAEEKSIPTLISRLPAVSSVACGASVGYAVTKDGRVFAWGMGTNYQLGTGQDEDAWSPVEMMGKQLENRVVLSVSSGGQHTVLLVKDKEQS
notes: human RCC1, predominant isoform RCC1α, synthetic gene; also called free RCC1; WT RCC1; source: E. coli BL21(DE3) AI or BL21(DE3), purified
B4: RCC1 (human, cleaved from GST, in the purified importin α3:RCC1 complex) (natural protein, UniProt P18754 1-421, looked up)
chain: B3 chain
notes: human RCC1, predominant isoform RCC1α, synthetic gene; also called RCC1α; human RCC1; source: E. coli BL21-AI, co-expressed with ΔIBB-importin α3, cleaved off glutathione beads with PreScission Protease, SEC; not shown: GST, N-terminal, cleaved
B5: GST-RCC1 (full-length human RCC1, wild type) (natural protein, UniProt P18754 1-421, looked up)
chain: B3 chain
notes: human RCC1, predominant isoform RCC1α, synthetic gene (GenScript); β-propeller printed as residues 30–421; Used in the syringe for ITC (methods say GST-RCC1); also called full length GST-RCC1; WT GST-RCC1; source: E. coli BL21(DE3) AI or BL21(DE3), pGEX-6P, glutathione resin; not shown: GST, N-terminal, kept
B6: RCC1-R9A/K21A (natural protein, human, UniProt P18754 1-421, looked up)
chain: B3 chain with R9A, K21A
notes: human RCC1 (RCC1α) with R9A and K21A; also called P2/P2′ double mutant; source: E. coli BL21(DE3) AI or BL21(DE3), purified
B7: RCC1-S11E (natural protein, human, UniProt P18754 1-421, looked up)
chain: B3 chain with S11E
notes: human RCC1 (RCC1α) with the phospho-mimetic S11E; also called phospho-mimetic RCC1-S11E; source: E. coli BL21(DE3) AI or BL21(DE3), purified
B8: RCC1-K21A (natural protein, human, UniProt P18754 1-421, looked up)
chain: B3 chain with K21A
notes: human RCC1 (RCC1α) with K21A; also called P2 mutant; source: E. coli BL21(DE3) AI or BL21(DE3), purified
B9: RCC1-R9A (natural protein, human, UniProt P18754 1-421, looked up)
chain: B3 chain with R9A
notes: human RCC1 (RCC1α) with R9A; also called P2′ mutant; source: E. coli BL21(DE3) AI or BL21(DE3), purified
B10: ΔIBB-importin α3 (as used for ITC) (domain or fragment)
chain: not shown
modifications: Limits not given; taken from the ΔIBB-importin α3 entity of PDB 4UAE (Met + 420 residues, starting VQNTS), which fits the expected complex MW of ~91.2 kDa. A construct running to 521 is possible.
B11: Δ10-RCC1 (domain or fragment, human, UniProt P18754 11-421, looked up)
chain: SPPADAIPKSKKVKVSHRSHSTEPGLVLTLGQGDVGQLGLGENVMERKKPALVSIPEDVVQAEAGGMHTVCLSKSGQVYSFGCNDEGALGRDTSVEGSEMVPGKVELQEKVVQVSAGDSHTAALTDDGRVFLWGSFRDNNGVIGLLEPMKKSMVPVQVQLDVPVVKVASGNDHLVMLTADGDLYTLGCGEQGQLGRVPELFANRGGRQGLERLLVPKCVMLKSRGSRGHVRFQDAFCGAYFTFAISHEGHVYGFGLSNYHQLGTPGTESCFIPQNLTSFKNSTKSWVGFSGGQHHTVCMDSEGKAYSLGRAEYGRLGLGEGAEEKSIPTLISRLPAVSSVACGASVGYAVTKDGRVFAWGMGTNYQLGTGQDEDAWSPVEMMGKQLENRVVLSVSSGGQHTVLLVKDKEQS
notes: human RCC1 (RCC1α) lacking the entire minor NLS box; source: E. coli BL21(DE3) AI or BL21(DE3), purified

Assays:
Conditions in all cases: both partners purified
[1] = target: T1, GST-ΔIBB-importin α3 (human, UniProt O00629 59-521); experiment: pull-down; purified GST-ΔIBB-importin α3 or GST-ΔIBB-Kap60 (1 µM) pre-incubated with RCC1/yRCC1 (0.75 µM) ~60 min at 4 °C, then bound to glutathione beads, washed three times, eluted with 25 mM reduced glutathione; SDS-PAGE, Coomassie, quantified in triplicate, WT = 100%
T1 construct: human importin α3 lacking the N-terminal IBB domain; also called GST-tagged importin α3 (lacking the IBB); source: E. coli BL21(DE3) AI or BL21(DE3), pGEX-6P, purified (glutathione resin); not shown: GST, N-terminal, kept
T1 sequence (looked up): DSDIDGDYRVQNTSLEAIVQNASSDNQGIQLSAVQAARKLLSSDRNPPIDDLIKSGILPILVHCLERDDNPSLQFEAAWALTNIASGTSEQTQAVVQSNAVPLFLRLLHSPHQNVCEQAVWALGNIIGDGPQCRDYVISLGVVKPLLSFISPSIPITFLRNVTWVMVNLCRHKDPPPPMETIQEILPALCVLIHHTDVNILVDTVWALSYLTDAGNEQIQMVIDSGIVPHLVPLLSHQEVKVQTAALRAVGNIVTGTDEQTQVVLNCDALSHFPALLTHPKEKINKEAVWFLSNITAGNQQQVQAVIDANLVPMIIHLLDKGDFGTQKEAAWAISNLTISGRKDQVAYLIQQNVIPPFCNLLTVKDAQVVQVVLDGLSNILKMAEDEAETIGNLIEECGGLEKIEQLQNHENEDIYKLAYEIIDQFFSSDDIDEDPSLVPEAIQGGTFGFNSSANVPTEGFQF

[2] = target: T2, ΔIBB-Kap60 (co-expressed with yeast GST-RCC1) (Saccharomyces cerevisiae, UniProt Q02821 66-542); experiment: SEC-SAXS; Kap60:yRCC1 complex at 5.0 mg ml^-1 on Superose 12 10/300 GL; 20 mM Tris-HCl pH 7.5, 150 mM NaCl, 5% glycerol, 3 mM BME; frames 710–750
T2 construct: yeast importin α Kap60 lacking the N-terminal IBB domain; the methods say ΔIBB-Kap60; source: E. coli BL21-AI, co-expressed with yeast GST-RCC1, purified as complex (glutathione beads, PreScission, SEC)
T2 sequence (looked up): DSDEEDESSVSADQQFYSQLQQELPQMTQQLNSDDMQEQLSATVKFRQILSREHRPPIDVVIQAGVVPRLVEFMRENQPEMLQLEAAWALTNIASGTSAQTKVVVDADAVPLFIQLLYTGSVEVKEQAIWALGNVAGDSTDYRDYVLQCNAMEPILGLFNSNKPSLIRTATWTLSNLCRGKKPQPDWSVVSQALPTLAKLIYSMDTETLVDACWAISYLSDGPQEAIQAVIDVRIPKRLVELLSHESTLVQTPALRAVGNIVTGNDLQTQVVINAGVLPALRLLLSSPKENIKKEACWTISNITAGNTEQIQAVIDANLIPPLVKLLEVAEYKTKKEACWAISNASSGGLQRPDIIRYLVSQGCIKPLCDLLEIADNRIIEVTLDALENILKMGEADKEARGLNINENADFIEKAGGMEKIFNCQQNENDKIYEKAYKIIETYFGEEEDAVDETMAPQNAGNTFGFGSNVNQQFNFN

[3] = target: untagged ΔIBB-importin α3 (co-expressed with GST-RCC1) (human, UniProt O00629 1-521, Limits not given; taken from the ΔIBB-importin α3 entity of PDB 4UAE, which fits the expected complex MW of ~91.2 kDa. The 5TBK entity lists the full-length sequence although the IBB was deleted.); experiment: SAXS; purified importin α3:RCC1 complex in GF buffer, 3.5–7.5 mg ml^-1, physiological salt
[4] = target: B10; experiment: ITC; nano-ITC, 20 °C; GST-RCC1 (300 µM) injected in 2.0 µl increments into 195 µl of ΔIBB-importin α3 or α1 (100 µM); 20 mM Tris-HCl pH 8.0, 150 mM NaCl, 5 mM BME, 0.1 mM PMSF; single set of binding sites model; triplicate
[5] = target: B5; experiment: as above

Binder	reduction of binding relative to WT RCC1 [1] [%]	also measured
B1	~10	
B2		stoichiometry N [2]: 1
B3		stoichiometry N [1]: 1
B4		stoichiometry N [3]: 1
B5		stoichiometry N [4]: < 1
B6	~85	
B7	~10	
B8	25	
B9	25	
B10		Kd [5]: 620 ± 100 nM
B11	~60	
